Experimental findings from the DeepSol protein solubility set are described below.

A short description of the series: soluble on expression in E. coli; label from the status in PepcDB or PDB records.
On to “MAHHHHHHMGKAAKGRTAMPGKLDTTEADKRTPKSIIIYRGEVGIHVRSLMHEWRNVFLPWSSKKLHGKNKSLKDFLAVAATFSASHLQLFTAPSQGTSLRIMRFFNGPTLSFRVLSFTLHKEIVAKQRRPVAVDRAAWEVAPIVVLNNFTHPDLAHRAEVPLLTATFKALFPSLNVQTIQSSEIQRICLFHYDHVEHVVEVRHYYINARTVGVTKTVKKLLENRRPTKLGTLESIDEVLDREDAWSDTDGEGEEVPLVQPFRQHREQCRVKLQEIGPRMTLQLSKVENGFAGGEVIYHRTEKKTLREVQVNASKVRARKTEKAKRRALQDENVQRKRQKREDKLERKHQRREAAAEAQQANPFEVAHGDGDGDGYAAGDEE”, for which the “soluble on expression in E. coli” value is recorded as “soluble”.
For the sequence “MGSDKIHHHHHHMEANSIDVNSILANKNLIIKFQPVVSVIKKSVIGLEAVCLGSSDDNGGIISTSKLFKTAEEQGVLIELDRLYREKAVKEFVKVYKRNKELLLFLDINISIIDKYVGSGIIMNLISDSGISTNNVVLQIIEGKMTNLEALKKFIYLYRSNGFLVALKDLGTGFANMDKISYVEPDIIKINSVLTKGIEVDYYRQEVFRSLVNLSKKIGALVVCEDIASEQETMMIMELGADMLEGSYFENDFDLGEKFLDASRKLIDATAVKYEKYTEEEVKAKEMIYSGYDFVINEALKELSSLTEDKFDDSINTVINKNSKLECVYVLNKEGIQVGSTATRFTDMVPQRALIFEPAQKGTNHSLKKYYYFLKTMSLNKYVTEPYISLATGNLCITISAVFKNLEGKEYILCVDFNPNYMSM”, the “soluble on expression in E. coli” value is “not soluble”.
Next, “GAMGSEESLKHATRIIDEVVSKFLDDLGNAKSHLMSLYSACSSEVPPGPVDQKFQSIVIGCALEDQKKIKRRLETLLRNIDNSDKAIK”: “soluble”.
Next, “MQKKSQTAQSYHPMIKEFPEFYGPLTCPGQFLALLILEFGLNFAEIQKLKWENFNWNFKYLTIEKAGIKRVLPIREKFAIRVKAINNADELFAKSRQFLYTELKKFTNYSSKEIREQYILHQVKAGKSIYELATLLGLTTITTLEKYYRLEHHHHHH”: “not soluble”.
Next, “MAPSSRWDAMGPKNSYRSVHGRIVPELLESSVARVRPLQYVQRQPSQASARSGANPTHRPSAEVRPVIRTGEMTHSSVIPPLAPGVRRVSLGYESSPSGSLPPLFNQESPWRRQDSYSPQNPAVSHKASLNSTILQGPADAGVVGGQSWNRAWEPARGAASWDTWRNKAVVPPRRSGEPMVSMQAAEEIRILAVITIQAGVRGYLARRRIRLWHRGAMVIQATWRGYRVRRNLAHLCRATTTIQSAWRGYSTRRDQARHWQMLHPVTWVELGSRAGVMSDRSWFQDGRARTVSDHRCFQSCQAHACSVCHSLSSRIGSPPSVVMLVGSSPRTCHTCGRTQPTRVVQGMGQGTEGPGAVSWASAYQLAALSPRQPHRQDKAATAIQSAWRGFKIRQQMRQQQMAAKIVQATWRGHHTRSCLKNTEALLGPADPSASSRHMHWPGI”: “not soluble”.
“MNMTKNAFQFGIEPVRITDTDNIQVNEGLPTNADPQVYALQLAKTVKAMLNGVLKDAQDNIPFPVEVLPTRNSLPTPIIAHTLADRSVLVPVRGGKRPEVVTAPSGTEITVEPIEQAILVSHQTKLWDQKSTTGFTQGTLQQDALNICDNVIRTINSKMVDVLESSKLLKTVELPALTGSLTAKADAIMDALYENTESSFGSEVSDYGIIAHESHLKALSRLAAKQGFGGEDAIVDMLGTDVAYYNGEDRGVFMMAKRFTALSFGCFRHDGESITVVLSRDGDSQSHDLEILGKVFVVAEAATTIKMGTGSATAVLPVVKRLSFTKEAN”: the “soluble on expression in E. coli” value is listed as “not soluble”.
Turning to “MLNNPVGWFEIYVNDMERAKTFYETVLKVSLEEMPNPTSMPIKMLTFPSNMEKYGASGALVKMEGICAGGGGTLIYFSSDDCAVEQERIVAAGGQIHTPKMSIGEYGFITLAVDTEGNLFGLHSMQ”, the “soluble on expression in E. coli” value is recorded as “not soluble”.
Next, “SAMNGFERELQSRVLSVIPHGELEGVNGPLQNYTKTMNQALQHEHVVAAAPYVRFTGLAEKGSKLKAIEVRGVDPAYEQAVSSMSDFIDPEAWQNFYSGQQQVILGRGVANELKVQVGDYVTLMIPQTGGTNKVQAPKRVRVKVAGFLTLNGQIDHSLALVPLADAQQYVRLGDGVTGISLKTDDVLDAPSIVREVGNLVNVYVYLKSWQQQFGFLYRDIQLVRT”: “soluble”; “MSLSISEKPLSELLRPKDFEDFVGQDHIFGNKGILRRTLKTGNMFSSILYGPPGSGKTSVFSLLKRYFNGEVVYLSSTVHGVSEIKNVLKRGEQLRKYGKKLLLFLDEIHRLNKNQQMVLVSHVERGDIVLVATTTENPSFVIVPALLSRCRILYFKKLSDEDLMKILKKATEVLNIDLEESVEKAIVRHSEGDARKLLNTLEIVHQAFKNKRVTLEDLETLLGNVSGYTKESHYDFASAFIKSMRGSDPNAAVYYLVKMIEMGEDPRFIARRMIIFASEDVGLADPNALHIAVSTSIAVEHVGLPECLMNLVECAVYLSLAPKSNSVYLAMKEGHHHHHH”: “not soluble”; “MTQLPPAIFLMGPTAAGKTDLAIELTKVLPCELISVDSALVYRGMDIGTAKPSRELLAQFPHRLIDILDPAESYSAADFRTDALAAMADITARGKIPLLVGGTMLYYKALLEGLADMPAADPQVRAELEEEAARLGWQALHDQLAAVDPESAARIHPNDPQRLTRALEVYRVSGLTMTAHRQRQLAQSTEAGASGRSQLPYTVANLAIAPANRQVLHQRIAQRFTQMLEQGFIDEVVALRSRSDLHAGLPSIRAVGYRQVWDHLDGKLTSAEMQERGIIATRQLAKRQFTWLRSWADLQWLDSLDCDNLPRALKYLGTISILSLEHHHHHH”: “not soluble”.
Next, “SEQETRGANEAIDFNDELRNRREKLAALRQQGVAFPNDFRRDHTSDQLHEEFDAKDNQELESLNIEVSVAGRMMTRRIMGKASFVTLQDVGGRIQLYVARDSLPEGVYNDQFKKWDLGDIIGARGTLFKTQTGELSIHCTELRLLTKALRPLPDKFHGLQDQEVRYRQRYLDLIANDKSRQTFVVRSKILAAIRQFMVARGFMEVETPMMQVIPGGASARPFITHHNALDLDMYLRIAPELYLKRLVVGGFERVFEINRNFRNEGISVRHNPEFTMMELYMAYADYHDLIELTESLFRTLAQEVLGTTKVTYGEHVFDFGKPFEKLTMREAIKKYRPETDMADLDNFDAAKALAESIGITVEKSWGLGRIVTEIFDEVAEAHLIQPTFITEYPAEVSPLARRNDVNPEITDRFEFFIGGREIGNGFSELNDAEDQAERFQEQVNAKAAGDDEAMFYDEDYVTALEYGLPPTAGLGIGIDRMIMLFTNSHTIRDVILFPAMRPQK”: “soluble”.
For “MPVAEQPYHHGSLRRVLLARAESTLEKDGVDGLSLRQLAREAGVSHAAPSKHFRDRQALLDALAESGFLRLTAALERAVEEAESHARARFAALAGAYVSFALAHRELLALMYGNKHAPGAASQVVEAGHASMDLTVRIVTEAQAAGDIGPGDASRIALVAFATFHGIATLAAGGMLDGAPVDEVVTAASDTFWRGLAQA”, the “soluble on expression in E. coli” value is “soluble”.
Consider “SDSQSSILEENLEKILRGEGLEFDSVAEQVDPVTLRKNVCYIVGAVIFNSKEEVLMVQEAKRECYGRWYLPAGRMEECESILEALQREVREEAGIDCQPITLLLVQEQGPRWVRFIFLAEETGGSLKTTAEADDESLQAHWWDRKSPLPLRAHDILSLIDAGLKYRRNPWFPVTQPVDFPCHVVCQRLFLTFISSRADADDRLWLLMSNNNTSHHPRLPIVVSFRTYISKAVSKLIEDCMPSSYISVHIRGILGVQHNGRIPGKTDGICFNTLVLLENTEEGAEIGSPPSLETDCYRWQEVTNQGLKAKIIERIKDGSVLPFQSL”, for which the “soluble on expression in E. coli” value is “soluble”.
Next, “MSLNQLFCHPETITIKKAVYYDIAPIPLPTPFKDGTGGVRHASFFKGWMKIYDEDGFCGQGPAGPLMTDFFLPRMLNAPGKSNGEWMEYFWWEIRNFGYQSPYIPEMTNLDWLLLDLLANRAGLPLHRFLGADRDWACVYKGGGSVLLSDEALISDLQRFKDEGYKTTKFKIGGSGPDFSQDIRRLEKARQALGDGFGIAVDANQAWDAKTAFAFAKEAAPLGVAWLEEPVHAYDMDALRELRDLLDEAGIAMEIAMGESVRSYHTHVAYAEHGVDHLQPARLYCIAENMRVREYARRHGCRISTGGFTFQNAALGALYSEDELLEYHQPLNEVLVPYFSLVSEMKDGRFYLPDVPGLPVHLDFERLERDGLLRGIQFYYHKEGHHHHHH”: “soluble”; “AEEYGYIVTDQKPLSLAAGVKLLEILAEHVHMSSGSFINISVVGPALTFRIRHNEQNLSLADVTQQAGLVKSELEAQTGLQILQTGVGQRE”: “soluble”.
Next, “MGSDKIHHHHHHMQQEIIDFRQSQSLAGAELSRASYQRFDFGRHVHEDLHLGAVIRGAQAFNHKGTGHTLCRGDLSTLSPDECHDGIAATDTGYEVLVLSLPQWHLDRFAAELGISFGGFCQPKRKDMALYQAFVSLHRLLYQAENPLLEETALLDFFQRLLGQCSKSEKVTNTGTVKAGLSREIRLAKSLMADTPEPVTLELLGDATGLGRYRLLRHFRAQTGLSPHQWQLRLRLERAKKSLMQNDGNSLTDIAHQHGFSDLSHFTRHFRMAFLTSPSAYRRAIRN”: “not soluble”; “MSKRVRSSLILPAVCGLGLAAVLLSSCSSKAPQQPARQAGISGPGDYSRPHRDGAPWWDVDVSRIPDAVPMPHNGSVKANPYTVLGKTYYPMNDARAYRMVGTASWYGTKFHGQATANGETYDLYGMTAAHKTLPLPSYVRVTNLDNGKSVIVRVNDRGPFYSDRVIDLSFAAAKKLGYAETGTARVKVEGIDPVQWWAQRGRPAPMVLAQPKQAVAQAAPAAAQTQAVAMAQPIETYTPPPAQHAAAVLPVQIDSKKNASLPADGLYLQVGAFANPDAAELLKAKLSGVTAAPVFISSVVRNQQILHRVRLGPIGSADEVSRTQDSIRVANLGQPTLVRPD”: “not soluble”.
As for “MSLGIKVNRLKVEDQILRQFGGNLLLEKDGNRGFIAFIGRGLIDFTERIRILATVSRIKDILFIGTAGSLSNEILIGDLNIPKYAIPFENVSDFYADPTIAIPQADEKLLNEVYEYAEETGVKTHSTLHATLLFPYSETTEFLNYLLNIGVSTIDMEVSAFYKMSRFYGKRAVAVLRISDMPLIELHKQEELIKARREIAVNAVFRITLRFLKLEGHHHHHH”, the “soluble on expression in E. coli” value is on record as “not soluble”.
With “MKLDAILWDYDGTLVNSVPKNIEITKAILAIVAPHLTGDNLPKYLHSEANYHYANHAAKNWQELYVDYYGMSHDEMLQAGGLWAEHQEKNQTPVTLFEGIDGVIKEFAQLPHGICSQNSQSNIRRVLSDNGISAPFKSIVGYDDVSNGHQKPDAYSGIKCVESIFGHAENRQLMYIGDHEADTQFARNIEQQLGGQSKVIAVAAAYSGAMPEHWSVQPDYVARTVDELFSIIAQHT”, the “soluble on expression in E. coli” value was “not soluble”.
Next, “MVLAGGVGKRLLPLTRERPKPYLPLAGKPLYMYAVEQVAMVRSLLDRAVMVTPPGHPTPPGSLPSWLDTVEQQGEGVEAGLATALKRLGGGEEVVVSFVGYLARPNTLVRHVLDFYSVTRYKLVLALAPVTRGSESFGFVDADPSTGRVLGFSGSREEWMAGRGRVFAGVLAGDPEALEVLAGEGFVEGINTLARRGLVGSVVWPGEWLEVGYPCDLLEAPRLVVEAWAAVISAKARVARSSVIQGGVVIEEDAEVGEGAVVEGPAYLGRGAVVGRNSVVGPGVVLEEGAVVGDLVSIERSVMLERAEASGPSRLEGVVIGDGAYIAPLAAATNREGCTVVAPKTRLGPRATLEPGKTYTLEHHHHHH”: “not soluble”.
